Results published in publication PMC9437899.

Biological target: neonatal Fc receptor (FcRn) (UniProt P55899)
Assay: ELISA; pH 6.0; absorbance read with a plate reader; Kd defined as the concentration of protein that produces 50% of optimal binding response; who was immobilised is not given in the source

Chain of neonatal Fc receptor (FcRn) (P55899 24-365): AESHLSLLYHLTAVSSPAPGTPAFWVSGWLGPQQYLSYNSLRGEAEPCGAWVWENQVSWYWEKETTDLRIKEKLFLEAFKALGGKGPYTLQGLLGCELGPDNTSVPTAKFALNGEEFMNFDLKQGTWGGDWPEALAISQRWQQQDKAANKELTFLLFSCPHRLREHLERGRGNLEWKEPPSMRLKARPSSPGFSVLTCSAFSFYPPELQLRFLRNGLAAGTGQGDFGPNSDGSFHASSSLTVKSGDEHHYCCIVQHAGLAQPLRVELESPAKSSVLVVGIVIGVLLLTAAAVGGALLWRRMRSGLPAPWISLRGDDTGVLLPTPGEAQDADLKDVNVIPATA

Fc-PepH3 conjugate (Fc fusion)
Kd: 95.4 nM
